For test [1], the target named is T1, MUC1 100mer vaccine peptide (Homo sapiens, UniProt P15941).
T1 construct: 5 copies of the unglycosylated 20mer tandem repeat of the MUC1 VNTR region, human; 100 aa, 5 tandem repeats of 20 aa; unglycosylated; also called 100mer MUC1 peptide; MUC1 VNTR 100mer
Kind of test: SPR; Biacore T200; Fab captured at low density (RU < 50) on a CM5 chip coated with anti-human Fab capture kit; serially diluted 100mer peptide as analyte; 'Steady State' in Table 1 in place of rate constants. Conditions: both partners purified.

Test [2] has as its target T1, MUC1 100mer vaccine peptide.
Target sequence in this assay (P15941 136-235): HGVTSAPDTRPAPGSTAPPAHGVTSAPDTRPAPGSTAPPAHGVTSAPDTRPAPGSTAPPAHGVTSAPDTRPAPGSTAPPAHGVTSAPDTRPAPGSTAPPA
For test [3] the target is unchanged. Description: SPR; Biacore T200; Fab captured at low density (RU < 50) on a CM5 chip coated with anti-human Fab capture kit; serially diluted 100mer peptide as analyte; kinetic analysis, 1:1 model. The settings on record: both partners purified.
The target in a further test is T2, MUC1 VNTR 25mer peptide (Homo sapiens).
T2 construct: MUC1 VNTR, human; one repeat plus 5 amino acids from the next repeat; also called 25mer MUC1 peptide
T2 sequence (peptide, as listed by the source): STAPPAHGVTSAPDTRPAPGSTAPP
Kind of test: SPR; Biacore T200; whole IgG captured on a CM5 chip coated with anti-human IgG capture antibody; serially diluted 25mer peptide as analyte; 1:1 model. Conditions: both partners purified.

B1: H4K10 Fab (Fab, V domains shown)
VH: QLQLQESGPGLVKPSETLSLTCTVSGGSISSSRYYWGWIRQPPGKGLEWIGSIYYSGSTYYNPSLKSRVTISVDTSNNQFSLKLTSVTAADTAVYYCARLPESGGYSGWFDPWGQGTLVTVSS
VL: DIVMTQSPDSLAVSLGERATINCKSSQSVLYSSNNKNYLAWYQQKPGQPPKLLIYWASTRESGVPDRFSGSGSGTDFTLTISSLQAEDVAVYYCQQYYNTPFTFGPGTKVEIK
Consider B1, for which binding in test [1] was characterised by a dissociation constant (Kd) of 5310 nM.

B2: H4K11 Fab (Fab, V domains shown)
VH: QLQLQESGPGLVKPSETLSLTCTVSGGSISSSRYYWGWIRQPPGKGLEWIGSIYYSGSTYYNPSLKSRVTISVDTSNNQFSLKLTSVTAADTAVYYCARLPESGGYSGWFDPWGQGTLVTVSS
VL: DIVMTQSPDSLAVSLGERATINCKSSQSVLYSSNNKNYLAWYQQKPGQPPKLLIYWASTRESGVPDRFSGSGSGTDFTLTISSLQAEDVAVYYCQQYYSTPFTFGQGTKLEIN
B2: in test [1], binding was characterised by a dissociation constant (Kd) of 15700 nM.

B3: H16K6 (antibody, V domains shown)
VH: QVQLVESGGGLVKPGGSLRLSCAASGFTFSDYYMSWIRQAPGKGLEWVSYISSSGTTKYYADSVKGRFTISRDNAKNSLYLQMNSLRAEDTAVYYCVRENLGYCSGGSCFYYYYMDVWGKGTTVTVSS
VL: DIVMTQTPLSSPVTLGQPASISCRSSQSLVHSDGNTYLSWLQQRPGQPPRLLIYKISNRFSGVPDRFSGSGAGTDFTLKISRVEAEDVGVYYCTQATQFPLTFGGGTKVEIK
With B3, the binding result in test [2] is reported as “binds”.

B4: H19K15 Fab (Fab, V domains shown)
VH: QVQLVESGGGLVKPGGSLRLSCAASGFIFSDYYMSWIRQAPGKGLEWVSYISSSGTTKYYADSVKGRFTISRDNAKNSLYLQMNSLRAEDTAVYYCVREDIGYCSGGSCFYYYYMDVWGKGTTVTVSS
VL: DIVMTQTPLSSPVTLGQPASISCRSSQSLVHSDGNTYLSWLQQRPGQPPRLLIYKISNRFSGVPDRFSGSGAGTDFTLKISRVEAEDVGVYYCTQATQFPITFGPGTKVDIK
In test [3], B4 registered a Kd of 0.555 nM, a dissociation rate constant (koff) of 0.000453 s⁻¹ and an association rate constant (kon) of 817000 M⁻¹ s⁻¹.

B5: H14K6 whole IgG (antibody, V domains shown)
VH: QVQLVESGGGLVKPGGSLRLSCAASGFTFSDYYMSWIRQAPGKGLEWVSYISSSGSTIYYADSVKGRFTISRDNAKNSLYLQMNSLRAEDTAVYYCARERIGYCSGGSCYYYYYMDVWGKGTTVTVSS
VL: not shown
With B5, in the test with MUC1 VNTR 25mer peptide, binding was put at a Kd of 27.2 nM, the koff was found to be 0.00123 s⁻¹ and the kon is 45300 M⁻¹ s⁻¹.

B6: H19K15 whole IgG (antibody, V domains shown)
VH: QVQLVESGGGLVKPGGSLRLSCAASGFIFSDYYMSWIRQAPGKGLEWVSYISSSGTTKYYADSVKGRFTISRDNAKNSLYLQMNSLRAEDTAVYYCVREDIGYCSGGSCFYYYYMDVWGKGTTVTVSS
VL: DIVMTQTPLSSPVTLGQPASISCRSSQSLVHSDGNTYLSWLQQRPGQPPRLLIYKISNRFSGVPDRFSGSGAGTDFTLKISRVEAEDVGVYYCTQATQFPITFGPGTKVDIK
Consider B6, for which the kon with MUC1 VNTR 25mer peptide amounted to 8600 M⁻¹ s⁻¹.

B7: H14K6 Fab (Fab, V domains shown)
VH: QVQLVESGGGLVKPGGSLRLSCAASGFTFSDYYMSWIRQAPGKGLEWVSYISSSGSTIYYADSVKGRFTISRDNAKNSLYLQMNSLRAEDTAVYYCARERIGYCSGGSCYYYYYMDVWGKGTTVTVSS
VL: not shown
In the case of B7, in test [3], the Kd is 0.13 nM, the koff was determined as 0.000346 s⁻¹ and the kon was found to be 2.67e+06 M⁻¹ s⁻¹.
